pKa data for one substance are collected here from paper PMC5368644.

Where only a bound is given, the exact number is not on record here.

Common to all, as to experiment: NMR
Details in all cases: 25 °C; Not stated for the titration samples (structure samples contained 45 mM NaCl, 1 mM EDTA, 1 mM EGTA); Phosphate buffer for pH 7.3 to 5.9; acetate buffer for pH 5.5 to 3.5; pH changed by buffer exchange; concentrations not given; Ca2+-free, ligand-free, folded (the protein starts to unfold at pH 3 or below); ~0.5 mM protein

The target of series [1] is Glu97 (UniProt position 124, ECSQDESGAAA).
Series [2] has as its target Glu47 (UniProt position 74, QIWRVEKFDLV).
The target in series [3] is Asp110 (UniProt position 137, TVQLDDYLNGR).
For series [4], the target named is Glu121 (UniProt position 148, AVQHREVQGFE).
In series [5] the target is Glu156 (UniProt position 183, HVVPNEVVVQR).
For series [6], the target named is His151 (UniProt position 178, ASGFKHVVPNE).
Series [7] has as its target Asp61 (UniProt position 88, TNLYGDFFTGD).
In series [8] the target is Asp50 (UniProt position 77, RVEKFDLVPVP).
For series [9], the target named is Asp109 (UniProt position 136, FTVQLDDYLNG).
Series [10] has as its target Asp84 (UniProt position 111, GNLQYDLHYWL).
For series [11], the target named is Asp96 (UniProt position 123, NECSQDESGAA).
The target in series [12] is Glu38 (UniProt position 65, LKAGKEPGLQI).
Series [13] addresses Asp66 (UniProt position 93, DFFTGDAYVIL).
The target in series [14] is Glu126 (UniProt position 153, EVQGFESATFL).
The target of series [15] is Glu92 (UniProt position 119, YWLGNECSQDE).
Series [16] addresses His29 (UniProt position 56, SMVVEHPEFLK).
Series [17] deals with His119 (UniProt position 146, GRAVQHREVQG).
Series [18] concerns the target His86 (UniProt position 113, LQYDLHYWLGN).

As for “Gelsolin fragment G1+ (domain 1 plus G1-G2 linker) (Homo sapiens (inferred; not stated explicitly in the article))”, the pKa in series [1] is reported as less than 3.5; in [2] it was less than 3.5; in [3], 4.3; in [4], less than 3.5; in series [5] it was 3.8; in series [6], 6.2. Besides, the pKa in series [7] is listed as 4.5; in series [8] it was 4.8; in series [9], 5.5; in [10], less than 3.5; in [11], less than 3.5; in series [12], 4.1. The pKa in series [13] was 3.9; in series [14], less than 3.5; in series [15], 4.3; in series [16] it was 5.9; in series [17], 4.3; in [18], 4.2.
